We go through one molecule from publication PMC6737903, “The Hox gene Abdominal-B uses Doublesex^F as a cofactor to promote neuroblast apoptosis in the Drosophila central nervous system” (Development (Cambridge, England), 2019).

This assay has as its target T1, His-Dsx^CR (Dsx common region, aa residues 1-397) (Drosophila, UniProt P23023 1-397).
T1 construct: Doublesex (Dsx), Drosophila, region common to the male and female isoforms, aa residues 1-397; source: bacterially expressed (0.5 mM IPTG, 18°C, 2 h), cell lysate for the pulldown; purified and dialyzed for EMSA; not shown: His tag, N-terminal, kept
Nature of the assay: pull-down; GST pulldown: GST-tagged AbdB proteins or GST alone as bait; bacterially expressed His-tagged Dsx proteins as input cell lysates; Western blot; three repetitions. As to conditions: one partner purified. In general terms: Immunoblotting shows a protein as a band on a membrane.

T1 sequence (P23023 1-397): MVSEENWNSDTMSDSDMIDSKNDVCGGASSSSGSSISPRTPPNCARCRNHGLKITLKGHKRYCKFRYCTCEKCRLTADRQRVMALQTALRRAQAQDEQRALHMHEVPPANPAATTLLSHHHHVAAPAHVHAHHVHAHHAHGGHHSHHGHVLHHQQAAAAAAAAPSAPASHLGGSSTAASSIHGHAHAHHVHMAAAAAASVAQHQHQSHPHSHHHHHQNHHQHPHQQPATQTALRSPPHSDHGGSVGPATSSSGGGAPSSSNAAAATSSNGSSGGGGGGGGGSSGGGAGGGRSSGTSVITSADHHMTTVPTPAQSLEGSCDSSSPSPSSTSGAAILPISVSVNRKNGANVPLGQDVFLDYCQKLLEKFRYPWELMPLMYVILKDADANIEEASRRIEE

B1: GST-AbdB-N (truncated version of AbdB-r, aa residues 89-270) (domain or fragment)
chain: not shown
notes: Abdominal-B (AbdB), Drosophila, regulatory isoform AbdB-r, aa residues 89-270; printed length of AbdB-r by the limits: 270; numbers count on: the AbdB-r isoform; The results say that AbdB-N lacks the first 89 amino acids; the methods give aa residues 89-270; also called GST-tagged AbdB-N; source: bacterially expressed (0.5 mM IPTG, 18°C, 2 h); GST-tagged bait in the pulldown; used as protein (50 …)
Turning to B1, the binding result is on record as “binds”.
